Assay [1] has as its target STRO-1 monoclonal antibody. Description: competition: STRO-1 pre-incubated with rh-HSC70 overnight at 4 C, flow cytometry of STRO-1 on UE7T-13 cells. (Flow cytometry measures light scatter and fluorescence of single cells or particles in a stream.)
The target in assay [2] is heat shock cognate 70 (HSC70; HSPA8) on the surface of UE7T-13 cells (human) (UniProt P11142). The assay can be described thus: flow cytometry on UE7T-13 cells, hybridoma supernatant, fluorescein anti-mouse IgM.
The target of assay [3] is STRO-1 monoclonal antibody. The assay can be described thus: competition: STRO-1 pre-incubated with GST-L393, flow cytometry on UE7T-13 cells, relative to pre-incubation with GST alone.

Sequence of UniProt P11142 (P11142 2-646 limits assumed): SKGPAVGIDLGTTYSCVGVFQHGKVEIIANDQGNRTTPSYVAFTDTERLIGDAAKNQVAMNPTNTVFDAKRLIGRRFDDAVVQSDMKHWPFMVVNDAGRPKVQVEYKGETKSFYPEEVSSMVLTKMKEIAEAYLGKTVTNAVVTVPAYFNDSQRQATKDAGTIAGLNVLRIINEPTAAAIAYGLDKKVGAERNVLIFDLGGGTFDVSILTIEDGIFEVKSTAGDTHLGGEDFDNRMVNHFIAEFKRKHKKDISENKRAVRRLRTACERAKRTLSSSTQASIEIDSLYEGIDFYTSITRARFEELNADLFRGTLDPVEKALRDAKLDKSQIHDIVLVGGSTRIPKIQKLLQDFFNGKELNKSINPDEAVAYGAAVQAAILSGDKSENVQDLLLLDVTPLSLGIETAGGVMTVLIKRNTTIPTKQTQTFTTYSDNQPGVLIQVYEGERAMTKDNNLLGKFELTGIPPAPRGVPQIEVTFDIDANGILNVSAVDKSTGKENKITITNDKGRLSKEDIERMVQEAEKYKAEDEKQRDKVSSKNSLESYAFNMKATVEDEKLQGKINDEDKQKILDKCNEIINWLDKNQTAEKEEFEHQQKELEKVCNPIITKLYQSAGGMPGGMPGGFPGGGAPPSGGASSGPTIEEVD

“recombinant human HSC70 (Enzo) (from UniProt A2Q0Z1 1-646)” yielded a reduction in MFI in assay [1] of 30%.
For STRO-1 monoclonal antibody, the MFI in assay [2] is 17200.
In turn, “GST-L393 (N-terminal Glutathione S-transferase fusion of the first 393 amino acids of human HSC70) (from UniProt A2Q0Z1 1-393)” yielded a reduction in antibody binding in assay [3] of 60%.

Source of the values: patent US20180135019A1.
